Measurements from publication doi:10.64898/2025.12.23.696137 (bioRxiv, 2025).

Molecular target: the molecule itself
Experiment: co-IP

B1: METTL9-FLAG wild type (mouse) (enzyme)
chain: RRMWTLRSPLSRSLYVNMTSGPGGPAAAAGGGKDTHQWYVCNREKLCESLQSVFVQSYLDQGTQIFLNNSIEKSGWLFIQLYHSFVSSVFSLFMSRTSINGLLGRGSMFVFSPDQFQRLLRINPDWKTHRLLDLGAGDGEVTKIMSPHFEEIYATELSETMIWQLQKKKYRVLGINEWQNTGFQYDVISCLNLLDRCDQPLTLLKDIRSVLEPTQGRVILALVLPFHPYVENVGGKWEKPSEILEIKGQNWEEQVNSLPEVFRKAGFVVEAFTRLPYLCEGDMYNDYYVLDDAVFVLRPV
modifications: N-linked glycans at Asn-35 and Asn-86
- stoichiometry N: 2
